# Measurements: patent publication US20250027068
# Target: pooled human IgG (human IgG1,2,3 and 4)
Protein,Enzyme Activity Endpoint Assay: Fab′2 [ng/µL],Enzyme Activity Endpoint Assay: Fc [ng/µL],Enzyme Activity Endpoint Assay: IgG [ng/µL],Enzyme Activity Endpoint Assay: scIgG [ng/µL]
PRT-435 (protein) MSQTEDSESLQRLRDIEDFQAEKEKQNVVYTKWLDGVDVKDHDFRKIVDGNIAYYATPLLNGRGFYDINKDFNRDSDKCAAAVAANMFHYWLDRNRDNVDRFLRQNPEKHGIIELPDGQLKLSDFLNTYESDDGYRDKSKLFDFISNNFNGPVWTDKLLDNYINGYAYNYKYGRTIEDPTKNTSKINFFKEVFNEKILTNNHSIRNQNEFSVLLSEALYTGKAIGLSYGPAGLRHSLGHIISVWGADLDADGNVVAIYVTDSDDKKLTIGDERVGLKRYKISTDDEGRLRLTAYEETHNTGGQIRGLWTLDTGKQAWADYFDKTEQTGTDQAEQ,35,205,625,380

# Target: pooled human IgG (human IgG1, 2, 3 and 4)
Protein,Enzyme Activity Endpoint Assay (purified): Fab'2 [ng/µL],Enzyme Activity Endpoint Assay (purified): Fc [ng/µL],Enzyme Activity Endpoint Assay (purified): IgG [ng/µL],Enzyme Activity Endpoint Assay (purified): scIgG [ng/µL],Enzyme Activity Endpoint Assay (purified): Fab′2 [ng/µL]
PRT-594 (protein) MANQEIRYSEETPSTITSVWTKGVTPPTDFIQNEDVLHAPYIANQGWYDITKTFNGKDDLLCGAATAGNMLHWWFDQNKEQIENYLKKHPEKQKINFNGEQMFDVKEAIDTKDSQLDSALFEYFKDKAFPYLSTKHLGVFPDHVIDMFINGYRLSLTNHGPTPVKRGTKDPRGGIFDAVFTRGDQSKLLTSRHDFKEKTLNEISDLIKQELTEGKALGLSHTYANVRINHVINLWGADFNAEGNLEAIYVTDSDSNASIGMKKYYVGVNSAGKVAISAKEIEGDNIGAQVLGLFTLSTGQDIWNQTNLEHHHHHH,138,271,123,487,
PRT-577 (protein) MANQEIRYSKATPSTITSVWTKGVTPPENFIYNEDVLHAPYLANQGWYDITKTFNGKDDLLCGAATAGNMLHWWFDQNKEQIERYLKEHPEKQKINFNGEQMFDVKEAIDTKDSQTNSKLFEYFKDKAFPYLSTKHLGVFPDHVIDMFINGYRLSLTNHGPTPVKEQTKDPRGGIFDAVFTRGDQSKLLTSRHDFKEKTLNEISQLIKQELTEGKALGLSHTYANVRINHVINLWGADFNAEGNLEAIYVTDSDSNASIGMKKYYVGVNSAGKVAISAKEIEGDNIGAQVLGLFTLSTGQDIWQQTNLEHHHHHH,566,338,0,230,
PRT-585 (protein) MANQEIRYSKATPSTITSVWTKGVTPPEQFIYNEDVLHAPYIANQGWYDITKTFNGKDDLLCGAATAGNMLHWWFDQNKEQIERYLKKHPEKQKINFNGEQMFDVKEAIDTKDSQTNSKLFEYFKDKAFPYLSTKHLGVFPDHVIDMFINGYRLSLTNHGPTPVKEQTKDPRGGIFDAVFTRGDQSKLLTSRHDFKEKTLNEISDLIKQELTEGKALGLSHTYANVRINHVINLWGADFNAEGNLEAIYVTDSDSNASIGMKKYYVGVNSAGKVAISAKEIEGDNIGAQVLGLFTLSTGQDIWEQTNLEHHHHHH,574,303,0,229,
PRT-435 (protein) MSQTEDSESLQRLRDIEDFQAEKEKQNVVYTKWLDGVDVKDHDFRKIVDGNIAYYATPLLNGRGFYDINKDFNRDSDKCAAAVAANMFHYWLDRNRDNVDRFLRQNPEKHGIIELPDGQLKLSDFLNTYESDDGYRDKSKLFDFISNNFNGPVWTDKLLDNYINGYAYNYKYGRTIEDPTKNTSKINFFKEVFNEKILTNNHSIRNQNEFSVLLSEALYTGKAIGLSYGPAGLRHSLGHIISVWGADLDADGNVVAIYVTDSDDKKLTIGDERVGLKRYKISTDDEGRLRLTAYEETHNTGGQIRGLWTLDTGKQAWADYFDKTEQTGTDQAEQ,,205,625,380,35
PRT-445 (protein) MSQTEDSESLQRLRDIEDFQAEKKKQNVVYTKWLDGVDVKDHDFRKIVDGNIAYYATPLLNGRGFYDINKDFNRDSDKCAAAVAANMFHYWLDRNRDNVDRFLRQNPEKHGIIELPDGQLKLSDFLNTYESDDGYRDKSKLFDFISNNFNGPVWTDKLLDNYINGYAYNYKYGRTIEDSTKNTSKINFFKEVFNEKILTNNHSIRNQNEFSVLLSEALYTGKAIGLSYGPAGLRHSLGHIISVWGADLDADGNVVAIYVTDSDDKKLTIGDERVGLKRYKISTDDEGRLRLTAYEETHNTGGQIRGLWTLDTGKQAWADYFDKTEQTGTDQAEQ,559,330,0,259,
PRT-441 (protein) MSQTEDSESLQRLRDIEDFQAEKKKQNVVYTKWLDGVDVKDHDFRKIVDGNIAYYATPLLNGRGFYDINKDFNRDSDKCAAAVAANMFHYWLDRNRDNVDRFLRQNPEKHGIIELPDGQLKLSDFLNTYESDDGYRDKSKLFDFISNNFNGPVWTDKLLDNYINGYAYNYKYGRTIEDPTKNTSKINFFKEVFNEKILTNNHSIRNQNEFSVLLSEALYTGKAIGLSYGPAGTRHSLGHIISVWGADLDADGNVVAIYVTDSDDKKLTIGDERVGLKRYKISTDDEGRLRLTAYEETHNTGGQIRGLWTLDTGKQAWADYFDKTEQTGTDQAEQ,514,310,0,217,
